Results on 1 molecule are retold here after US20170306044A1 (ENGMAB, published 2017).

By EC50 is commonly meant the concentration at which the effect is half-maximal.

Values joined by “and” are separate entries in the source; they are usually repeats but may differ in a detail not shown here. Equal values may be shown once.

Experiment [1] addresses T1, human ROR1 (tyrosine-protein kinase transmembrane receptor ROR1) (human, UniProt Q01973 30-937).
T1 construct: whole, on cells; the assays used the protein on cells
The experiment can be described thus: flow cytometry on SK-OV-3 ovarian cancer cells (MFI against antibody concentration); extrapolated value. As for the experimental part:
(§1) a) The level of expression of ROR1 is measured on human ovarian cancer cell lines by flow cytometry including PA-1, MCAS, EFO-21, COLO-704, SW-626, KURAMOCHI, OVSAHO, SNU-119, COV362, OVCAR-4, COV318, TYK-nu, ON/KATE, CAOV-4, OAW28, CAOV-3, 59M, ONCO-DG-1, OVCAR-3. OVCAR-5, ES-2, COV-504, OV-90, RMUG-S, COV-644, SNU-840, OVISE, OAW42, OVTOKO, OVMANA, COV-434, OV56, SK-OV-3N2780, IGROV-1, and/or TOV-21G. Briefly, cells are harvested, washed, counted for viability, resuspended at 50,000 cells/well of a 96-well round bottom plate and incubated with Alexa488-labeled anti human ROR1 antibody for 30 min at 4° C. All ROR1 and isotype control antibodies are titrated and analyzed in final concentration range between 0.01-100 nM. […] At the end of incubation time, cells are centrifuged (5 min. at 350 x g), washed twice with FACS buffer, resuspended in 100 u.l FACS buffer and analyzed on a CantoII device running FACS Diva software. Expression of ROR1 is then quantitified as the median fluorescence intensity (MFI) and graphs showing the MFI in function of ROR1 antibody concentrations are plotted. EC50 values are then measured using Prism software (GraphPad). […] The calculated EC50s for binding of ROR1 Mab1 to SK-OV-3 are extrapolated values and may be underestimated. […]

In experiment [2] the target is T1, human ROR1 (tyrosine-protein kinase …). The experiment can be described thus: flow cytometry, maximum MFI at 10 µg/mL antibody, PA-1 against SK-OV-3 cells. As for the experimental part:
as §1

Experiment [3] shares this target. The experiment can be described thus: flow cytometry on PA-1 ovarian cancer cells (MFI against antibody concentration). As for the experimental part:
as §1
On the technique in general: Flow cytometry measures light scatter and fluorescence of single cells or particles in a stream.

T1 sequence (Q01973 30-937): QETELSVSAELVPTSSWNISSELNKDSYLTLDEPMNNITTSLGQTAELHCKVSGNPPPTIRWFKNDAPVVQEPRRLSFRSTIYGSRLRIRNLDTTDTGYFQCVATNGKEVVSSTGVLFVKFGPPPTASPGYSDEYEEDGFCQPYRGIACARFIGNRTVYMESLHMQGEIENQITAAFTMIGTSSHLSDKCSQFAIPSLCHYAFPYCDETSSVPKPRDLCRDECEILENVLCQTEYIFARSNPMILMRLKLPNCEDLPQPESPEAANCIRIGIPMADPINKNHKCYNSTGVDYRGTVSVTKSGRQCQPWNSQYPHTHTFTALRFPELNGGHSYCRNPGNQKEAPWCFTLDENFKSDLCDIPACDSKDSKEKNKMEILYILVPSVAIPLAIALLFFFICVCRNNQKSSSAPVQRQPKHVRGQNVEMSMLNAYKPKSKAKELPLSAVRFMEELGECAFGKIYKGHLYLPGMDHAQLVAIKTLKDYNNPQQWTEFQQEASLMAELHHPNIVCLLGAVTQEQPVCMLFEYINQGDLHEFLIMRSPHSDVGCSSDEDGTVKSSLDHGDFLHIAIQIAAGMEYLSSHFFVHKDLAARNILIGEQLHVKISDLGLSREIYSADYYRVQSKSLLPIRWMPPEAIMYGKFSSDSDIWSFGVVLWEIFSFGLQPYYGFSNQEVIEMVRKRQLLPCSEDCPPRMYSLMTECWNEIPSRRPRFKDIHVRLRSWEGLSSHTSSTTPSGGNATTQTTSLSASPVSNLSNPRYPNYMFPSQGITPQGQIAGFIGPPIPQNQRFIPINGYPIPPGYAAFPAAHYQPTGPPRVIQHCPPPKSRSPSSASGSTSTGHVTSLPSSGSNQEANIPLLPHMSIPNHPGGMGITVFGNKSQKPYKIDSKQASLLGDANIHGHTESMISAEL

B1: ROR1 Mab1 IgG (anti-ROR1 antibody MAB1) (antibody, V domains shown)
VH: QEQLVESGGRLVTPGGSLTLSCKASGFDFSAYYMSWVRQAPGKGLEWIATIYPSSGKTYYATWVNGRFTISSDNAQNTVDLQMNSLTAADRATYFCARDSYADDGALFNIWGPGTLVTISS
VL: ELVLTQSPSVSAALGSPAKITCTLSSAHKTDTIDWYQQLQGEAPRYLMQVQSDGSYTKRPGVPDRFSGSSSGADRYLIIPSVQADDEADYYCGADYIGGYVFGGGTQLTVTG
notes: also called ROR1 IgG; Mab1 anti-ROR1 antibodies
For B1, the EC50 in experiment [1] is ~4.62 nM and ~0.69 µg/mL; in experiment [3] it was 0.87 nM and 0.13 µg/mL. Moreover, the “maximum MFI on PA-1 cells relative to SK-OV-3 cells” value in experiment [2] is approximately 3 fold.
